Reference: patent publication US20150344570A1 (published 2015)

The binders below were run against T1, FcγRIa (human, UniProt P12314 16-292) (assay: SPR (Biacore), captured antibody, FcγR as analyte, relative binding).
T1 construct: extracellular domain; Soluble extracellular domain with C-terminal His tag, used as analyte; also called FcgRI; CD64; not shown: His tag at the C terminus
Protocol: The heterodimerized antibodies He Abs in which one of the H chains was introduced with an alteration were assayed for their binding activities to each activating FcγR and inhibitory FcγR according to the method described in Example 4. […] The activating FcγRs in FIGS. 26, 27, 28, and 29 are FcγRIa, FcγRIIa (R), FcγRIIa (H), and FcγRIIIa, respectively.
Analysis of interaction between objective antibody and the FcγR was carried out using Biacore T100 (GE Healthcare). HBS-EP+ (GE Healthcare) was used as the running buffer, and the measurement temperature was set to 25° C. Chips produced by immobilizing the antigen peptide by the amine coupling method to a Series S Sencor Chip CM5 (GE Healthcare), or alternatively, chips produced by allowing preliminarily biotinylated antigen peptides to interact with and immobilize onto a Series S Sensor Chip SA (certified) (GE Healthcare) were used. Antibodies of interest were captured onto an antigen peptide-immobilized chip, and allowed to interact to each FcγR diluted with running buffer. To regenerate and repeatedly use the chip, the antibodies captured on the chip were washed off by reacting 10 mM glycine-HCl, pH 1.5.

T1 sequence (P12314 16-292): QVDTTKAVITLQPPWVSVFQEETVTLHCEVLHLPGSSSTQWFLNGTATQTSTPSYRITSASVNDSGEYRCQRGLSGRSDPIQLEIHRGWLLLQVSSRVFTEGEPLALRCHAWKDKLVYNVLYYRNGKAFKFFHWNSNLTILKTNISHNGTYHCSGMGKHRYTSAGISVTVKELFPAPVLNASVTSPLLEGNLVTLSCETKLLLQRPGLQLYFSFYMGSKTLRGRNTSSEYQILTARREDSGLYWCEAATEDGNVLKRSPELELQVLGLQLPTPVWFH

He/Con_1a	Binder
86.7 % of GpH7-A5/GpH7-B3/GpL16-k0	GpH7-A5/GpH7-B3 variant A327_12R/GpL16-k0 (antibody, human IgG1, kappa, He Ab: mutation in one H chain only; also called He Ab) heavy 1: not shown heavy 2: not shown light: DIVMTQSPLSLPVTPGEPASISCQASESLVHSNRNTYLHWYLQKPGQSPQLLIYKVSNRFSGVPDRFSGSGSGTDFTLKISRVEAEDVGVYYCSQNTHVPPTFGQGTKVEIERTVAAPSVFIFPPSDEQLKSGTASVVCLLNNFYPREAKVQWKVDNALQSGNSQESVTEQDSKDSTYSLSSTLTLSKADYEKHKVYACEVTHQGLSSPVTKSFNRGEC

What follows are binders tested against FcγRIIa H (human, UniProt P12318 34-217) (assay: SPR Biacore, captured antibody, FcγR analyte; vs GpH7-B3/GpL16-k0 = 100).
FcγRIIa H, sequence (P12318 34-217): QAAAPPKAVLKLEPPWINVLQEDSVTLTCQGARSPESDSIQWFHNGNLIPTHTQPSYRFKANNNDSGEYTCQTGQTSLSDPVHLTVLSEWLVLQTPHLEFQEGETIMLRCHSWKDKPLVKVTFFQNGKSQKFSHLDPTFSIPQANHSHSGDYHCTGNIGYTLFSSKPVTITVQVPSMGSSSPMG

Binder	Ho/Con_2aH
GpH7-B3 variant A327_09D/GpL16-k0 (antibody, human IgG1, kappa, also called Ho Ab A327_09D) heavy: not shown light: DIVMTQSPLSLPVTPGEPASISCQASESLVHSNRNTYLHWYLQKPGQSPQLLIYKVSNRFSGVPDRFSGSGSGTDFTLKISRVEAEDVGVYYCSQNTHVPPTFGQGTKVEIERTVAAPSVFIFPPSDEQLKSGTASVVCLLNNFYPREAKVQWKVDNALQSGNSQESVTEQDSKDSTYSLSSTLTLSKADYEKHKVYACEVTHQGLSSPVTKSFNRGEC	90.1 % of control
GpH7-B3 variant E333_13S/GpL16-k0 (antibody, human IgG1, kappa, also called Ho Ab E333_13S) heavy: not shown light: DIVMTQSPLSLPVTPGEPASISCQASESLVHSNRNTYLHWYLQKPGQSPQLLIYKVSNRFSGVPDRFSGSGSGTDFTLKISRVEAEDVGVYYCSQNTHVPPTFGQGTKVEIERTVAAPSVFIFPPSDEQLKSGTASVVCLLNNFYPREAKVQWKVDNALQSGNSQESVTEQDSKDSTYSLSSTLTLSKADYEKHKVYACEVTHQGLSSPVTKSFNRGEC	94.6 % of control
GpH7-B3 variant K334_13S/GpL16-k0 (antibody, human IgG1, kappa, also called Ho Ab K334_13S) heavy: not shown light: DIVMTQSPLSLPVTPGEPASISCQASESLVHSNRNTYLHWYLQKPGQSPQLLIYKVSNRFSGVPDRFSGSGSGTDFTLKISRVEAEDVGVYYCSQNTHVPPTFGQGTKVEIERTVAAPSVFIFPPSDEQLKSGTASVVCLLNNFYPREAKVQWKVDNALQSGNSQESVTEQDSKDSTYSLSSTLTLSKADYEKHKVYACEVTHQGLSSPVTKSFNRGEC	94.9 % of control
GpH7-B3 variant E333_14T/GpL16-k0 (antibody, human IgG1, kappa, also called Ho Ab E333_14T) heavy: not shown light: DIVMTQSPLSLPVTPGEPASISCQASESLVHSNRNTYLHWYLQKPGQSPQLLIYKVSNRFSGVPDRFSGSGSGTDFTLKISRVEAEDVGVYYCSQNTHVPPTFGQGTKVEIERTVAAPSVFIFPPSDEQLKSGTASVVCLLNNFYPREAKVQWKVDNALQSGNSQESVTEQDSKDSTYSLSSTLTLSKADYEKHKVYACEVTHQGLSSPVTKSFNRGEC	90.4 % of control
GpH7-B3 variant K326_12R/GpL16-k0 (antibody, human IgG1, kappa, also called Ho Ab K326_12R) heavy: not shown light: DIVMTQSPLSLPVTPGEPASISCQASESLVHSNRNTYLHWYLQKPGQSPQLLIYKVSNRFSGVPDRFSGSGSGTDFTLKISRVEAEDVGVYYCSQNTHVPPTFGQGTKVEIERTVAAPSVFIFPPSDEQLKSGTASVVCLLNNFYPREAKVQWKVDNALQSGNSQESVTEQDSKDSTYSLSSTLTLSKADYEKHKVYACEVTHQGLSSPVTKSFNRGEC	98.8 % of control
GpH7-B3 variant I336_10E/GpL16-k0 (antibody, human IgG1, kappa, also called Ho Ab I336_10E) heavy: not shown light: DIVMTQSPLSLPVTPGEPASISCQASESLVHSNRNTYLHWYLQKPGQSPQLLIYKVSNRFSGVPDRFSGSGSGTDFTLKISRVEAEDVGVYYCSQNTHVPPTFGQGTKVEIERTVAAPSVFIFPPSDEQLKSGTASVVCLLNNFYPREAKVQWKVDNALQSGNSQESVTEQDSKDSTYSLSSTLTLSKADYEKHKVYACEVTHQGLSSPVTKSFNRGEC	93.4 % of control
GpH7-B3 variant I336_03V/GpL16-k0 (antibody, human IgG1, kappa, also called Ho Ab I336_03V) heavy: not shown light: DIVMTQSPLSLPVTPGEPASISCQASESLVHSNRNTYLHWYLQKPGQSPQLLIYKVSNRFSGVPDRFSGSGSGTDFTLKISRVEAEDVGVYYCSQNTHVPPTFGQGTKVEIERTVAAPSVFIFPPSDEQLKSGTASVVCLLNNFYPREAKVQWKVDNALQSGNSQESVTEQDSKDSTYSLSSTLTLSKADYEKHKVYACEVTHQGLSSPVTKSFNRGEC	90.4 % of control
GpH7-B3 variant K326_01G/GpL16-k0 (antibody, human IgG1, kappa, also called Ho Ab K326_01G) heavy: not shown light: DIVMTQSPLSLPVTPGEPASISCQASESLVHSNRNTYLHWYLQKPGQSPQLLIYKVSNRFSGVPDRFSGSGSGTDFTLKISRVEAEDVGVYYCSQNTHVPPTFGQGTKVEIERTVAAPSVFIFPPSDEQLKSGTASVVCLLNNFYPREAKVQWKVDNALQSGNSQESVTEQDSKDSTYSLSSTLTLSKADYEKHKVYACEVTHQGLSSPVTKSFNRGEC	98.2 % of control

The remaining lines, values ahead:

Ho/Con_2aH	Binder
94.3 % of control	GpH7-B3 variant I336_18N/GpL16-k0 (antibody, human IgG1, kappa, also called Ho Ab I336_18N) heavy: not shown light: DIVMTQSPLSLPVTPGEPASISCQASESLVHSNRNTYLHWYLQKPGQSPQLLIYKVSNRFSGVPDRFSGSGSGTDFTLKISRVEAEDVGVYYCSQNTHVPPTFGQGTKVEIERTVAAPSVFIFPPSDEQLKSGTASVVCLLNNFYPREAKVQWKVDNALQSGNSQESVTEQDSKDSTYSLSSTLTLSKADYEKHKVYACEVTHQGLSSPVTKSFNRGEC
97.2 % of control	GpH7-B3 variant K334_19Q/GpL16-k0 (antibody, human IgG1, kappa, also called Ho Ab K334_19Q) heavy: not shown light: DIVMTQSPLSLPVTPGEPASISCQASESLVHSNRNTYLHWYLQKPGQSPQLLIYKVSNRFSGVPDRFSGSGSGTDFTLKISRVEAEDVGVYYCSQNTHVPPTFGQGTKVEIERTVAAPSVFIFPPSDEQLKSGTASVVCLLNNFYPREAKVQWKVDNALQSGNSQESVTEQDSKDSTYSLSSTLTLSKADYEKHKVYACEVTHQGLSSPVTKSFNRGEC
99.2 % of control	GpH7-B3 variant A330_19Q/GpL16-k0 (antibody, human IgG1, kappa, also called Ho Ab A330_19Q) heavy: not shown light: DIVMTQSPLSLPVTPGEPASISCQASESLVHSNRNTYLHWYLQKPGQSPQLLIYKVSNRFSGVPDRFSGSGSGTDFTLKISRVEAEDVGVYYCSQNTHVPPTFGQGTKVEIERTVAAPSVFIFPPSDEQLKSGTASVVCLLNNFYPREAKVQWKVDNALQSGNSQESVTEQDSKDSTYSLSSTLTLSKADYEKHKVYACEVTHQGLSSPVTKSFNRGEC
80.4 % of control	GpH7-B3 variant G236_15Y/GpL16-k0 (antibody, human IgG1, kappa, also called Ho Ab G236_15Y) heavy: not shown light: DIVMTQSPLSLPVTPGEPASISCQASESLVHSNRNTYLHWYLQKPGQSPQLLIYKVSNRFSGVPDRFSGSGSGTDFTLKISRVEAEDVGVYYCSQNTHVPPTFGQGTKVEIERTVAAPSVFIFPPSDEQLKSGTASVVCLLNNFYPREAKVQWKVDNALQSGNSQESVTEQDSKDSTYSLSSTLTLSKADYEKHKVYACEVTHQGLSSPVTKSFNRGEC
78.1 % of control	GpH7-B3 variant K326_07I/GpL16-k0 (antibody, human IgG1, kappa, also called Ho Ab K326_07I) heavy: not shown light: DIVMTQSPLSLPVTPGEPASISCQASESLVHSNRNTYLHWYLQKPGQSPQLLIYKVSNRFSGVPDRFSGSGSGTDFTLKISRVEAEDVGVYYCSQNTHVPPTFGQGTKVEIERTVAAPSVFIFPPSDEQLKSGTASVVCLLNNFYPREAKVQWKVDNALQSGNSQESVTEQDSKDSTYSLSSTLTLSKADYEKHKVYACEVTHQGLSSPVTKSFNRGEC
54.2 % of control	GpH7-B3 variant L234_04F/GpL16-k0 (antibody, human IgG1, kappa, also called Ho Ab L234_04F) heavy: not shown light: DIVMTQSPLSLPVTPGEPASISCQASESLVHSNRNTYLHWYLQKPGQSPQLLIYKVSNRFSGVPDRFSGSGSGTDFTLKISRVEAEDVGVYYCSQNTHVPPTFGQGTKVEIERTVAAPSVFIFPPSDEQLKSGTASVVCLLNNFYPREAKVQWKVDNALQSGNSQESVTEQDSKDSTYSLSSTLTLSKADYEKHKVYACEVTHQGLSSPVTKSFNRGEC
63.2 % of control	GpH7-B3 variant G236_04F/GpL16-k0 (antibody, human IgG1, kappa, also called Ho Ab G236_04F) heavy: not shown light: DIVMTQSPLSLPVTPGEPASISCQASESLVHSNRNTYLHWYLQKPGQSPQLLIYKVSNRFSGVPDRFSGSGSGTDFTLKISRVEAEDVGVYYCSQNTHVPPTFGQGTKVEIERTVAAPSVFIFPPSDEQLKSGTASVVCLLNNFYPREAKVQWKVDNALQSGNSQESVTEQDSKDSTYSLSSTLTLSKADYEKHKVYACEVTHQGLSSPVTKSFNRGEC
94.2 % of control	GpH7-B3 variant G236_14T/GpL16-k0 (antibody, human IgG1, kappa, also called Ho Ab G236_14T) heavy: not shown light: DIVMTQSPLSLPVTPGEPASISCQASESLVHSNRNTYLHWYLQKPGQSPQLLIYKVSNRFSGVPDRFSGSGSGTDFTLKISRVEAEDVGVYYCSQNTHVPPTFGQGTKVEIERTVAAPSVFIFPPSDEQLKSGTASVVCLLNNFYPREAKVQWKVDNALQSGNSQESVTEQDSKDSTYSLSSTLTLSKADYEKHKVYACEVTHQGLSSPVTKSFNRGEC
43.8 % of control	GpH7-B3 variant L234_15Y/GpL16-k0 (antibody, human IgG1, kappa, also called Ho Ab L234_15Y) heavy: not shown light: DIVMTQSPLSLPVTPGEPASISCQASESLVHSNRNTYLHWYLQKPGQSPQLLIYKVSNRFSGVPDRFSGSGSGTDFTLKISRVEAEDVGVYYCSQNTHVPPTFGQGTKVEIERTVAAPSVFIFPPSDEQLKSGTASVVCLLNNFYPREAKVQWKVDNALQSGNSQESVTEQDSKDSTYSLSSTLTLSKADYEKHKVYACEVTHQGLSSPVTKSFNRGEC
96.5 % of control	GpH7-B3 variant E333_08L/GpL16-k0 (antibody, human IgG1, kappa, also called Ho Ab E333_08L) heavy: not shown light: DIVMTQSPLSLPVTPGEPASISCQASESLVHSNRNTYLHWYLQKPGQSPQLLIYKVSNRFSGVPDRFSGSGSGTDFTLKISRVEAEDVGVYYCSQNTHVPPTFGQGTKVEIERTVAAPSVFIFPPSDEQLKSGTASVVCLLNNFYPREAKVQWKVDNALQSGNSQESVTEQDSKDSTYSLSSTLTLSKADYEKHKVYACEVTHQGLSSPVTKSFNRGEC
93.6 % of control	GpH7-B3 variant E333_04F/GpL16-k0 (antibody, human IgG1, kappa, also called Ho Ab E333_04F) heavy: not shown light: DIVMTQSPLSLPVTPGEPASISCQASESLVHSNRNTYLHWYLQKPGQSPQLLIYKVSNRFSGVPDRFSGSGSGTDFTLKISRVEAEDVGVYYCSQNTHVPPTFGQGTKVEIERTVAAPSVFIFPPSDEQLKSGTASVVCLLNNFYPREAKVQWKVDNALQSGNSQESVTEQDSKDSTYSLSSTLTLSKADYEKHKVYACEVTHQGLSSPVTKSFNRGEC
